# Assay results published in publication doi:10.64898/2025.12.17.694949, “Chiral inversion mutagenesis identifies geometrically constrained residues within self-associating low-complexity domains” (bioRxiv, 2025).
# T1: wild-type glutathione S-transferase (GST)-EMD LCD fusion protein
# T1 sequence (P50402 whole entry, species assumed, looked up): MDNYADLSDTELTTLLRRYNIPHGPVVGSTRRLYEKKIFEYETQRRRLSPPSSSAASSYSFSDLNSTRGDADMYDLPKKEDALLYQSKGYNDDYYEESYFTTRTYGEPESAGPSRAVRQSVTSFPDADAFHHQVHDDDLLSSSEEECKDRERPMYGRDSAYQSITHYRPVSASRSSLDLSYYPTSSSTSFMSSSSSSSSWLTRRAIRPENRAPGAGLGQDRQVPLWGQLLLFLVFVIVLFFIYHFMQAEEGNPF
# Biological target: T1, wild-type glutathione S-transferase (GST)-EMD LCD fusion protein
# Experiment: GST pulldown, Western blot against HA, densitometry
# Settings: HA-tagged 3xPro EMD LCD prey 50 nM; n=3; parent: est. 0.26; read off a plot
row,response,Molecule
1,0.18 Fraction IP,"HA-tagged EMD LCD, wild-type (recombinant) 3xPro 203-205 (label as printed; insertion of three prolines, not substitution)"
2,0.21 Fraction IP,"HA-tagged EMD LCD, wild-type (recombinant) 3xPro 178-181 (insertion, not substitution: ...aa178(Pro)aa179(Pro)aa180(Pro)aa181...)"
3,0.21 Fraction IP,"HA-tagged EMD LCD, wild-type (recombinant) 3xPro 208-211 (insertion, not substitution: ...aa208(Pro)aa209(Pro)aa210(Pro)aa211...)"

# Biological target: P07196
# Experiment: turbidity (absorbance at 395 nm); synthetic NEFL head domain 5xD ChIM library, 100 μM LCD (n=3)
# Settings: other: turbidity (absorbance at 395 nm)
row,Molecule,fold decrease in turbidity relative to wild-type
1,synthetic NEFL head domain 5xD_(22-30) (protein) SSFSYEPYYSTSYKRRYVETPRVHISSVRCGYSTARSAYSSYSAPVSSSLSVRRSYSSSSGSLMPSLENLELS,"with 9.1-fold and 20-fold decreases in turbidity relative to wild-type, respectively"
2,synthetic NEFL head domain 5xD_(63-71) (protein) SSFSYEPYYSTSYKRRYVETPRVHISSVRCGYSTARSAYSSYSAPVSSSLSVRRSYSSSSGSLMPSLENLELS,"with 2.7-fold, 1.6-fold, and 1-fold relative decreases in turbidity, respectively"
3,synthetic NEFL head domain 5xD_(33-41) (protein) SSFSYEPYYSTSYKRRYVETPRVHISSVRCGYSTARSAYSSYSAPVSSSLSVRRSYSSSSGSLMPSLENLELS,"with 9.1-fold and 20-fold decreases in turbidity relative to wild-type, respectively"
4,synthetic NEFL head domain 5xD_(43-51) (protein) SSFSYEPYYSTSYKRRYVETPRVHISSVRCGYSTARSAYSSYSAPVSSSLSVRRSYSSSSGSLMPSLENLELS,"with 2.7-fold, 1.6-fold, and 1-fold relative decreases in turbidity, respectively"
5,synthetic NEFL head domain 5xD_(53-63) (protein) SSFSYEPYYSTSYKRRYVETPRVHISSVRCGYSTARSAYSSYSAPVSSSLSVRRSYSSSSGSLMPSLENLELS,"with 2.7-fold, 1.6-fold, and 1-fold relative decreases in turbidity, respectively"

# Biological target: P50402
# Experiment: turbidity (absorbance at 395 nm); untagged semi-synthetic EMD LCD 3xD ChIM library, 50 μM LCD (n=3)
# Settings: other: turbidity (absorbance at 395 nm)
row,Molecule,fold decrease in turbidity relative to wild-type
1,untagged semi-synthetic EMD LCD 3xD_(199-203) (protein) RRLSPPSSSAASSYSFSDLNSTRGDADMYDLPKKEDALLYQSKGYNDDYYEESYFTTRTYGEPESAGPSRAVRQSVTSFPDADAFHHQVHDDDLLSSSEEECKDRERPMYGRDSAYQSITHYRPVSASRSSLDLSYYPTSSSTCFMSSSSSSSSWLTRRAIRPENRAPGAGLGQER,"13.3-, 2.8-, and 2.1-fold decreases in turbidity"
2,untagged semi-synthetic EMD LCD 3xD_(203-207) (protein) RRLSPPSSSAASSYSFSDLNSTRGDADMYDLPKKEDALLYQSKGYNDDYYEESYFTTRTYGEPESAGPSRAVRQSVTSFPDADAFHHQVHDDDLLSSSEEECKDRERPMYGRDSAYQSITHYRPVSASRSSLDLSYYPTSSSTCFMSSSSSSSSWLTRRAIRPENRAPGAGLGQER,displays a modest 1.4-fold decrease in turbidity
3,untagged semi-synthetic EMD LCD 3xD_(191-195) (protein) RRLSPPSSSAASSYSFSDLNSTRGDADMYDLPKKEDALLYQSKGYNDDYYEESYFTTRTYGEPESAGPSRAVRQSVTSFPDADAFHHQVHDDDLLSSSEEECKDRERPMYGRDSAYQSITHYRPVSASRSSLDLSYYPTSSSTCFMSSSSSSSSWLTRRAIRPENRAPGAGLGQER,"13.3-, 2.8-, and 2.1-fold decreases in turbidity"
4,untagged semi-synthetic EMD LCD 3xD_(195-199) (protein) RRLSPPSSSAASSYSFSDLNSTRGDADMYDLPKKEDALLYQSKGYNDDYYEESYFTTRTYGEPESAGPSRAVRQSVTSFPDADAFHHQVHDDDLLSSSEEECKDRERPMYGRDSAYQSITHYRPVSASRSSLDLSYYPTSSSTCFMSSSSSSSSWLTRRAIRPENRAPGAGLGQER,"13.3-, 2.8-, and 2.1-fold decreases in turbidity"

# Biological target: the molecule itself
# Experiment: as above
# Settings: not given
row,Molecule,binding result
1,"untagged semi-synthetic EMD LCD (residues 46-221), all L- wild-type (domain or fragment, UniProt P50402 46-221, looked up, Emerin (EMD) low-complexity domain, residues 46-221 (P1 46-188 recombinant, P2 189-221 synthetic); P2 made on Rink amide resin (C-terminal amide surmised); source: RP-HPLC purified) RRLSPPSSSAASSYSFSDLNSTRGDADMYDLPKKEDALLYQSKGYNDDYYEESYFTTRTYGEPESAGPSRAVRQSVTSFPDADAFHHQVHDDDLLSSSEEECKDRERPMYGRDSAYQSITHYRPVSASRSSLDLSYYPTSSSTCFMSSSSSSSSWLTRRAIRPENRAPGAGLGQER",binds

# System: not listed separately
# Experiment: turbidity (absorbance at 395 nm); untagged recombinant EMD LCD 3xPro library, 60 μM LCD, transferred from denaturing to native Tris buffer (n=3)
# Settings: other: turbidity (absorbance at 395 nm)
row,Molecule,fold decrease in turbidity relative to wild-type
1,untagged EMD LCD 3xPro_(193-196),"reduce turbidity by 107.6-, 16.6-, 34.7-, and 14.3-fold, respectively"
2,untagged EMD LCD 3xPro_(188-191),"reduce turbidity by 107.6-, 16.6-, 34.7-, and 14.3-fold, respectively"
3,untagged EMD LCD 3xPro_(198-201),"reduce turbidity by 107.6-, 16.6-, 34.7-, and 14.3-fold, respectively"
4,untagged EMD LCD 3xPro_(203-206),"reduce turbidity by 107.6-, 16.6-, 34.7-, and 14.3-fold, respectively"
5,untagged EMD LCD 3xPro_(183-186),modestly reduces turbidity by 2.8-fold relative to wild-type

# Biological target: T1, wild-type glutathione S-transferase (GST)-EMD LCD fusion protein
# Experiment: pull-down; wild-type GST-EMD LCD immobilized on glutathione resin, incubated with HA-tagged EMD LCD prey (50 nM), washed with binding buffer, eluted with GSH; Western blot against HA in eluent relative to input, densitometry (n=3)
# Settings: not given
row,fold reduction of pulldown relative to wild-type,Molecule
1,5 fold,HA-tagged EMD LCD 3xPro_(188-191) (domain or fragment)
2,3.4 fold,HA-tagged EMD LCD 3xPro_(198-201) (domain or fragment)
3,2.2 fold,HA-tagged EMD LCD 3xPro_(183-186) (domain or fragment)
4,5.9 fold,HA-tagged EMD LCD 3xPro_(193-196) (domain or fragment)

# Biological target: T1, wild-type glutathione S-transferase (GST)-EMD LCD fusion protein
# Experiment: as above
# Settings: not given
# Remark: another data set of the same source
row,fold reduction of pulldown relative to wild-type,Molecule
1,8.8 fold,"HA-tagged semi-synthetic EMD LCD 3xD_(191-195) (domain or fragment, three D-amino acids at alternating positions within 191-195) RRLSPPSSSAASSYSFSDLNSTRGDADMYDLPKKEDALLYQSKGYNDDYYEESYFTTRTYGEPESAGPSRAVRQSVTSFPDADAFHHQVHDDDLLSSSEEECKDRERPMYGRDSAYQSITHYRPVSASRSSLDLSYYPTSSSTCFMSSSSSSSSWLTRRAIRPENRAPGAGLGQER"
2,3.6 fold,"HA-tagged semi-synthetic EMD LCD 3xD_(203-207) (domain or fragment, three D-amino acids at alternating positions within 203-207) RRLSPPSSSAASSYSFSDLNSTRGDADMYDLPKKEDALLYQSKGYNDDYYEESYFTTRTYGEPESAGPSRAVRQSVTSFPDADAFHHQVHDDDLLSSSEEECKDRERPMYGRDSAYQSITHYRPVSASRSSLDLSYYPTSSSTCFMSSSSSSSSWLTRRAIRPENRAPGAGLGQER"
3,6.2 fold,"HA-tagged semi-synthetic EMD LCD 3xD_(199-203) (domain or fragment, three D-amino acids at alternating positions within 199-203) RRLSPPSSSAASSYSFSDLNSTRGDADMYDLPKKEDALLYQSKGYNDDYYEESYFTTRTYGEPESAGPSRAVRQSVTSFPDADAFHHQVHDDDLLSSSEEECKDRERPMYGRDSAYQSITHYRPVSASRSSLDLSYYPTSSSTCFMSSSSSSSSWLTRRAIRPENRAPGAGLGQER"
4,7.9 fold,"HA-tagged semi-synthetic EMD LCD 3xD_(195-199) (domain or fragment, three D-amino acids at alternating positions within 195-199) RRLSPPSSSAASSYSFSDLNSTRGDADMYDLPKKEDALLYQSKGYNDDYYEESYFTTRTYGEPESAGPSRAVRQSVTSFPDADAFHHQVHDDDLLSSSEEECKDRERPMYGRDSAYQSITHYRPVSASRSSLDLSYYPTSSSTCFMSSSSSSSSWLTRRAIRPENRAPGAGLGQER"
5,1.8 fold,"HA-tagged semi-synthetic EMD LCD 3xD_(207-211) (domain or fragment, three D-amino acids at alternating positions within 207-211) RRLSPPSSSAASSYSFSDLNSTRGDADMYDLPKKEDALLYQSKGYNDDYYEESYFTTRTYGEPESAGPSRAVRQSVTSFPDADAFHHQVHDDDLLSSSEEECKDRERPMYGRDSAYQSITHYRPVSASRSSLDLSYYPTSSSTCFMSSSSSSSSWLTRRAIRPENRAPGAGLGQER"
6,1.7 fold,"HA-tagged semi-synthetic EMD LCD 3xD_(211-215) (domain or fragment, three D-amino acids at alternating positions within 211-215) RRLSPPSSSAASSYSFSDLNSTRGDADMYDLPKKEDALLYQSKGYNDDYYEESYFTTRTYGEPESAGPSRAVRQSVTSFPDADAFHHQVHDDDLLSSSEEECKDRERPMYGRDSAYQSITHYRPVSASRSSLDLSYYPTSSSTCFMSSSSSSSSWLTRRAIRPENRAPGAGLGQER"
